The Kd is the concentration at which binding is half-saturated. A higher Kd goes with a looser complex.

Where two headings read alike, the source gives them in different places.

Here are results for seven molecules from patent publication US20230220104A1 (BRIGHTPATH BIOTHERAPEUTICS, published 2023).

Test [1] addresses T1, human CD73 on cells (H322, MDA-MB-231, HT-144, T cells, CD73-transfected HEK293T) (human, UniProt P21589 27-549).
T1 construct: whole, on cells; One molecule for endogenous and transfected cell-surface human CD73; the cell line is named under assay or readout; also called CD73 antigen; human CD73 antigen
T1 sequence (looked up): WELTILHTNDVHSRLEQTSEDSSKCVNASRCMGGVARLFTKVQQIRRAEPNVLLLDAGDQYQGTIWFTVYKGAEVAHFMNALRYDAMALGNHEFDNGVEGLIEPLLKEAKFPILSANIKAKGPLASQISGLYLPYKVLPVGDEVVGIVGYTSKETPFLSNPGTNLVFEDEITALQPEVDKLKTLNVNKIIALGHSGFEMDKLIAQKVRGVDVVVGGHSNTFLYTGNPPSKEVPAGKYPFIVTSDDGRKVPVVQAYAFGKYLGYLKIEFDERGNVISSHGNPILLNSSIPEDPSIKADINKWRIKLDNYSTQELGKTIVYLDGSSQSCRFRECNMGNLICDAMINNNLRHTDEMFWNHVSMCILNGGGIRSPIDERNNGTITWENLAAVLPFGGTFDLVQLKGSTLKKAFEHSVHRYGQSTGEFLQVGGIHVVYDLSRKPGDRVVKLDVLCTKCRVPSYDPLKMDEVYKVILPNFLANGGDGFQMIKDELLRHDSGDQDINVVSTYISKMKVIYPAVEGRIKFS
The test is described as follows: flow cytometry on MDA-MB-231 cells (endogenous CD73), fluorescently labeled secondary antibody, PE channel. (In general: In flow cytometry, cells or beads pass a laser one at a time.)

For test [2], the target named is T2, human CD73 antigen (Biacore analyte) (human, UniProt P21589 27-547, limits assumed).
T2 sequence (looked up): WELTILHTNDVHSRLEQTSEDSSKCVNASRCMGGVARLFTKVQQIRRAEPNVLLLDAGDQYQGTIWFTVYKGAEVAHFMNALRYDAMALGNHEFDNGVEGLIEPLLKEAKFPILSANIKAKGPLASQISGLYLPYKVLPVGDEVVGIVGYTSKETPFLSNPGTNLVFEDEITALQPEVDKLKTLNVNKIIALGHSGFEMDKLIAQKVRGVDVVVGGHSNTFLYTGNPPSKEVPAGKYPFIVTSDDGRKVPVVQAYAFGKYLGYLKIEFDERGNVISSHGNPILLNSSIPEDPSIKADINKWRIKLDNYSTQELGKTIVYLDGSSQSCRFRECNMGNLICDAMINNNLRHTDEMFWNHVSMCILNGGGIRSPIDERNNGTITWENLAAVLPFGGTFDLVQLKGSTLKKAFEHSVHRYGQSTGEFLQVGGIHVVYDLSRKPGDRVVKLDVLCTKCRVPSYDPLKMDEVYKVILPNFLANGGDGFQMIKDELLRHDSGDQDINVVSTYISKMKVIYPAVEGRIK
Nature of the test: SPR, Biacore 8K, antibody captured on CM5 chip, CD73 as analyte, multicycle kinetics, 1:1 model. For orientation: In SPR one partner is held on a chip, and binding of the other changes the refractive index at the surface.

For test [3], the target named is T3, cynomolgus CD73 (Biacore analyte) (cynomolgus, UniProt A0A2K5V5U7 27-547).
T3 sequence: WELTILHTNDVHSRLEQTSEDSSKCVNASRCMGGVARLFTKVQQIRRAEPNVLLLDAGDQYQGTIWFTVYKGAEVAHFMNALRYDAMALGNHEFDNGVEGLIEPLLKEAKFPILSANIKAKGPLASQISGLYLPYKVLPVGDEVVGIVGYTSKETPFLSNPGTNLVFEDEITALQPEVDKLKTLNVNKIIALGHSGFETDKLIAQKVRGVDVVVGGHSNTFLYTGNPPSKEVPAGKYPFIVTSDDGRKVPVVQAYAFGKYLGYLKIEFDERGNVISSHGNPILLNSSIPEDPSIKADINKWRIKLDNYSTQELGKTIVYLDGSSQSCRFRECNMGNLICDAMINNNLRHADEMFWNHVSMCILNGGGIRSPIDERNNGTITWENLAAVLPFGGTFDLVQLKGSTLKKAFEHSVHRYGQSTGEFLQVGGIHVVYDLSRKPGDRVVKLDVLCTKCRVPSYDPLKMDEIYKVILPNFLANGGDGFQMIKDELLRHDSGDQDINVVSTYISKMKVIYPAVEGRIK
The test is described as above.

Test [4] has as its target T1, human CD73 on cells (H322, MDA-MB-231, …). Nature of the test: cell-based or functional assay.
Test [5] shares this target. Nature of the test: cell-based or functional assay. The source holds these as a separate data set.
Test [6] has the same target. Nature of the test: flow cytometry, HEK293T cells forcibly expressing human CD73 (293T_hCD73) against untransfected 293T cells, APC channel.
The target is the same in test [7]. Nature of the test: cell-based or functional assay. The source holds these as a separate data set.
The target is the same in test [8]. The test is described as follows: flow cytometry on H322 cells (endogenous CD73), fluorescently labeled secondary antibody, PE channel.

B1: 009_m antibody (antibody, V domains shown)
VH: QVQLQQSGAELVRPGASVKLSCKASGYTFTSYWMNWVKQRPEPGLEWIGRIDPYDSEAHYNQKFKDKAILTVDKSSSTAYMQLSSLTSEDSAVYYCTRIRYGTFDYWGQGTTLTVSS
VL: DIVLTQSPSSMYASLGERVTITCKASQDINSYLSWFQQKPGKSPKTLIYRSNSLVDGVPSRFSGSGSGQDYSLTISSLEYEDMGSYYCLQYDEFPYTFGGGTRLEIKR
notes: Mouse antibody expressed recombinantly in CHO cells
For B1, in test [1], the binding result is reported as “binds”.

B2: 002_6_h4 antibody (antibody, V domains shown)
VH: QVQMKQSAAEVRKPGASVKVSCKASGYTFTDSNMDWVRQAPGQGLEWMGDINPNNGGTIYNQKFKGRVTMTIDTSRSTAYMELRSLRSDDTAVYYCARTNWDYAMDYWGQGTTVTVSS
VL: DIQMTQSPSFLSASVGDRVTITCKASQDINSQLSWYQQKPGKAPKTLIYRANRLIDGVPSRFSGSGSGTDFTLTISSLQYEDMATYYCLQYDVFPRTFGGGTKLEIK
notes: Humanized antibody of 002_6_c; also called humanized anti-CD73 antibody 002_6_h4; lead antibody
With B2, the Kd in test [2] is 204 pM; in test [3], 273 pM. Besides, in test [4], the “IC50 of AMP degradation suppressive function, MDA-MB-231 cells” value amounted to 0.032 µg/mL. Besides, the “IC50 of AMP degradation suppressive function, H322 cells” value in test [5] was found to be 0.069 µg/mL.

B3: 008_h4 antibody (antibody, V domains shown)
VH: QVQLVQSGAEVKKPGASVKVSCKASGYTFTSYWMHWVRQRPGQGLEWMGEINPSNGRTNYNEKFKNRATITADKSSSTAYMELSSLRSEDTAVYYCARRGTSGNYFDYWGQGTLVTVSS
VL: DIQMTQSPSSLSASVGDRVTITCKASQDINTYLSWFQQKPGKAPKTLIYRANRLVDGVPSRFSGSGYGTDFTLTISSLQYEDMATYYCLQYDEFPYTFGGGTKVEIK
notes: Humanized antibody based on 008_m
Turning to B3, in test [6], the binding result was “binds”.

B4: 004_h3 antibody (antibody, V domains shown)
VH: EVQLVQSGAEVKKPGESLKISCKASGYTFTGYWMNWLRQMPDKGLEWMGRIDPYDSETHYSQKFKDKVTITAHKSSSTAYLQWSSLKASDSAIYYCARSSPITTAPFDYWGQGTTVTVSS
VL: DIVMTQSPASLAVSLGERATISCRASESVDYYGFSFMNWYQQKPGQPPKLLIYAASTQGSGVPDRFSGSGSGTDFTLTISSLQAEDVAVYYCQQSKEVPYTFGGGTKVEIK
notes: Humanized antibody based on 004_m
On to B4, for which, in test [6], the binding result is reported as “binds”.

B5: 006_hKB antibody (antibody, V domains shown)
VH: QVQLLQSGAEVKKPGESVKISCKASGYTFTSYWMHWVKQRPGQGLEWIGEINPSNARTNYNENFKSRFTITVDKSTSTAYMQFSRLRSDDTAVYYCARRGTSGNYFDFWGQGTMLTVSS
VL: DIQMTQSPSSLSASLGQRVTITCKASQDINTYLSWFQQKPGKPPKTLIYRANRLVDGVPSRFSGSGSGEDYSLTISSLQSEDFGVYYCLQYDEFPYTFGPGTRLEIK
notes: Humanized antibody based on 006_m
As for B5, the Kd was determined as 426 pM in test [2] and 457 pM in test [3].

B6: 002_m antibody (antibody, V domains shown)
VH: QVQMKQSGPELVKPGASVKIPCKASGYTFTDCNMDWVKQSHGESLEWIGDINPNNGGTIYNQKFKGKVTLTIDKSSSTAYMELRSLTSEDTAVYYCARTNWDYAMDYWGQGTSVTVSS
VL: DIQMTQSPSSMYASLGERVTITCKASQDINSNLSWFQQKPGKSPKTLIYRANRLIDGVPSRFSGSGSGQDYSLTISSLEYEDMGIYYCLQYDVFPRTFGGGTKLELK
Turning to B6, the “IC50 of AMP degradation suppressive function, H322 cells” value in test [7] was found to be 0.089 µg/mL.

B7: 005_m antibody (antibody, V domains shown)
VH: DVQLVESGPGLVAPSQSLSITCTVSGFSLTSYGVSWVRQPPGKGLEWLGVIWGDGSTNYHSALISRLSISKDNSKSQVFLKLNSLQTDDTATYYCAKTNIFYDYDWYLDVWGAGTTVTVSS
VL: DIVMTQAPLSLPVSLGDQASISCRSSQSLVHSNGNTYLHWYLQKPGQSPKLLIYKVSNRFSGVPDRFSGSGSGTDFTLKISRVEAEDLGVYFCSHSTHVPWTFGGGTKLELK
notes: as for B1
Regarding B7, in test [8], the binding result was “binds”.
